For the experiment, the target named is Death Receptor 5 (UniProt O14763). Nature of the experiment: cell-based or functional assay.

“And” between values parts separate entries of the source, which are not always exact repeats. Equal entries are not always repeated. Some results are limits rather than exact numbers.

For “Conatumumab Multabody (from UniProt P02792 91-175)”, the IC50 of cell killing (cell viability, CellTiter-Glo, 24 h), CAPAN-1 cells was 0.002 µg/mL and 0.00087 nM; the IC50 of cell killing (cell viability, CellTiter-Glo, 24 h), Colo 205 cells was found to be 0.16 pM; the IC50 of cell killing (cell viability, CellTiter-Glo, 24 h), H2122 cells is 0.00015 µg/mL and 6.4e-05 nM; the IC50 of cell killing (cell viability, CellTiter-Glo, 24 h), H2228 cells is 0.031 µg/mL and 0.013 nM. The IC50 of cell killing (cell viability, CellTiter-Glo, 24 h), HT29 cells was 0.0024 µg/mL and 0.001 nM; the IC50 of cell killing (cell viability, CellTiter-Glo, 24 h), HTC15 cells was 0.00053 µg/mL and 0.00023 nM; the IC50 of cell killing (cell viability, CellTiter-Glo, 24 h), MDA-BD231 cells is 0.00071 µg/mL and 0.00031 nM; the IC50 of cell killing (cell viability, CellTiter-Glo, 24 h), SW948 cells is 0.16 pM.

Turning to “Tigatuzumab Multabody (from UniProt P02792 1-175; P02792 1-175)”, the Fold-change of killing IC50, MB vs parental IgG, mass basis, CAPAN-1 cells was over 5000 fold; the Fold-change of killing IC50, MB vs parental IgG, mass basis, Colo 205 cells is over 11800 fold; the Fold-change of killing IC50, MB vs parental IgG, mass basis, H2122 cells stood at 2940 fold; the Fold-change of killing IC50, MB vs parental IgG, mass basis, H2228 cells was over 651 fold. Further, the Fold-change of killing IC50, MB vs parental IgG, mass basis, HT29 cells was over 1190 fold; the Fold-change of killing IC50, MB vs parental IgG, mass basis, HTC15 cells is over 5000 fold; the Fold-change of killing IC50, MB vs parental IgG, mass basis, MDA-BD231 cells is over 8400 fold; the Fold-change of killing IC50, MB vs parental IgG, mass basis, SW948 cells was over 27000 fold. Also, the Fold-change of killing IC50, MB vs parental IgG, molar basis, CAPAN-1 cells was over 59300 fold; the Fold-change of killing IC50, MB vs parental IgG, molar basis, Colo 205 cells was over 181000 fold; the Fold-change of killing IC50, MB vs parental IgG, molar basis, H2122 cells was determined as 45600 fold; the Fold-change of killing IC50, MB vs parental IgG, molar basis, H2228 cells was over 10000 fold. The Fold-change of killing IC50, MB vs parental IgG, molar basis, HT29 cells was over 18300 fold; the Fold-change of killing IC50, MB vs parental IgG, molar basis, HTC15 cells is over 77000 fold; the Fold-change of killing IC50, MB vs parental IgG, molar basis, MDA-BD231 cells is over 129000 fold; the Fold-change of killing IC50, MB vs parental IgG, molar basis, SW948 cells is over 416000 fold. The IC50 of cell killing (cell viability, CellTiter-Glo, 24 h), CAPAN-1 cells is 0.0026 µg/mL and 0.0011 nM; the IC50 of cell killing (cell viability, CellTiter-Glo, 24 h), Colo 205 cells was 0.00085 µg/mL and 0.00037 nM; the IC50 of cell killing (cell viability, CellTiter-Glo, 24 h), H2122 cells was 0.00014 µg/mL and 5.9e-05 nM; the IC50 of cell killing (cell viability, CellTiter-Glo, 24 h), H2228 cells was 0.015 µg/mL and 0.0067 nM. For the same substance, the IC50 of cell killing (cell viability, CellTiter-Glo, 24 h), HT29 cells is 0.0084 µg/mL and 0.0037 nM; the IC50 of cell killing (cell viability, CellTiter-Glo, 24 h), HTC15 cells is 0.002 µg/mL and 0.00087 nM; the IC50 of cell killing (cell viability, CellTiter-Glo, 24 h), MDA-BD231 cells was 0.00052 nM and 0.0012 µg/mL; the IC50 of cell killing (cell viability, CellTiter-Glo, 24 h), SW948 cells is 0.00037 µg/mL and 0.00016 nM.

The record behind these values is patent publication US20240182544A1.
